Patent US20100260763A1 (DOMANTIS, published 2010)

Legend:
[1] = biological target: T1, human TNFR1, soluble recombinant protein (human, UniProt P19438 22-211, limits assumed, biotinylated in the BIAcore assays (coupling via primary amines)); assay: phage ELISA, plate coated with 1 nM TNFR1, anti-M13-HRP; trypsin 100 µg/ml 1 h room temp; phage input 5.64E+09
T1 construct: also called biotinylated TNFR1; human recombinant E. coli-expressed human TNFR1
T1 sequence (looked up): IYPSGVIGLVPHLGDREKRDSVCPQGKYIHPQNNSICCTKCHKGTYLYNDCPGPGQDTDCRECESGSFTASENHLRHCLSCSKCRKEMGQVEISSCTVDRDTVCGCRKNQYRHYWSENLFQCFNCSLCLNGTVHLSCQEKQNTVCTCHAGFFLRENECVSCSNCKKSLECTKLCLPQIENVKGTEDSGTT

[2] = biological target: T1, human TNFR1, soluble recombinant protein; assay: phage ELISA, plate coated with 1 nM TNFR1, anti-M13-HRP; trypsin 10 µg/ml 1 h room temp; phage input 2.82E+09
[3] = biological target: T1, human TNFR1, soluble recombinant protein; assay: phage ELISA, plate coated with 1 nM TNFR1, anti-M13-HRP; trypsin 100 µg/ml 1 h room temp; phage input 2.26E+10
[4] = biological target: T1, human TNFR1, soluble recombinant protein; assay: phage ELISA, plate coated with 1 nM TNFR1, anti-M13-HRP; trypsin 0 µg/ml; phage input 3.52E+08
[5] = biological target: T1, human TNFR1, soluble recombinant protein; assay: phage ELISA, plate coated with 1 nM TNFR1, anti-M13-HRP; trypsin 10 µg/ml 1 h room temp; phage input 3.52E+08
[6] = biological target: T1, human TNFR1, soluble recombinant protein; assay: phage ELISA, plate coated with 1 nM TNFR1, anti-M13-HRP; trypsin 10 µg/ml 1 h room temp; phage input 7.05E+08
[7] = biological target: T1, human TNFR1, soluble recombinant protein; assay: phage ELISA, plate coated with 1 nM TNFR1, anti-M13-HRP; trypsin 0 µg/ml; phage input 7.05E+08
[8] = biological target: T1, human TNFR1, soluble recombinant protein; assay: phage ELISA, plate coated with 1 nM TNFR1, anti-M13-HRP; trypsin 1 mg/ml 1 h room temp; phage input 7.05E+08
[9] = biological target: T1, human TNFR1, soluble recombinant protein; assay: phage ELISA, plate coated with 1 nM TNFR1, anti-M13-HRP; trypsin 10 µg/ml 1 h room temp; phage input 5.64E+09
[10] = biological target: T1, human TNFR1, soluble recombinant protein; assay: phage ELISA, plate coated with 1 nM TNFR1, anti-M13-HRP; trypsin 10 µg/ml 1 h room temp; phage input 2.26E+10
[11] = biological target: T1, human TNFR1, soluble recombinant protein; assay: phage ELISA, plate coated with 1 nM TNFR1, anti-M13-HRP; trypsin 1 mg/ml 1 h room temp; phage input 5.64E+09
[12] = biological target: T1, human TNFR1, soluble recombinant protein; assay: phage ELISA, plate coated with 1 nM TNFR1, anti-M13-HRP; trypsin 0 µg/ml; phage input 2.26E+10
[13] = biological target: T1, human TNFR1, soluble recombinant protein; assay: phage ELISA, plate coated with 1 nM TNFR1, anti-M13-HRP; trypsin 1 mg/ml 1 h room temp; phage input 2.82E+09
[14] = biological target: T1, human TNFR1, soluble recombinant protein; assay: phage ELISA, plate coated with 1 nM TNFR1, anti-M13-HRP; trypsin 100 µg/ml 1 h room temp; phage input 3.52E+08
[15] = biological target: T1, human TNFR1, soluble recombinant protein; assay: phage ELISA, plate coated with 1 nM TNFR1, anti-M13-HRP; trypsin 100 µg/ml 1 h room temp; phage input 2.82E+09
[16] = biological target: T1, human TNFR1, soluble recombinant protein; assay: phage ELISA, plate coated with 1 nM TNFR1, anti-M13-HRP; trypsin 100 µg/ml 1 h room temp; phage input 1.41E+09
[17] = biological target: T1, human TNFR1, soluble recombinant protein; assay: phage ELISA, plate coated with 1 nM TNFR1, anti-M13-HRP; trypsin 1 mg/ml 1 h room temp; phage input 1.41E+09
[18] = biological target: T1, human TNFR1, soluble recombinant protein; assay: phage ELISA, plate coated with 1 nM TNFR1, anti-M13-HRP; trypsin 10 µg/ml 1 h room temp; phage input 1.41E+09
[19] = biological target: T1, human TNFR1, soluble recombinant protein; assay: phage ELISA, plate coated with 1 nM TNFR1, anti-M13-HRP; trypsin 1 mg/ml 1 h room temp; phage input 2.26E+10
[20] = biological target: T1, human TNFR1, soluble recombinant protein; assay: phage ELISA, plate coated with 1 nM TNFR1, anti-M13-HRP; trypsin 100 µg/ml 1 h room temp; phage input 7.05E+08

DOM1h-131 displayed on phage
phage ELISA read-out [1]: 0.196 | phage ELISA read-out [2]: 0.573 | phage ELISA read-out [3]: 0.377 | phage ELISA read-out [4]: 0.577 | phage ELISA read-out [5]: 0.213 | phage ELISA read-out [6]: 0.286 | phage ELISA read-out [7]: 0.705 | phage ELISA read-out [8]: 0.084 | phage ELISA read-out [9]: 0.695 | phage ELISA read-out [10]: 0.802 | phage ELISA read-out [11]: 0.133 | phage ELISA read-out [12]: 0.944 | phage ELISA read-out [13]: 0.114 | phage ELISA read-out [14]: 0.084 | phage ELISA read-out [15]: 0.141 | phage ELISA read-out [16]: 0.115 | phage ELISA read-out [17]: 0.089 | phage ELISA read-out [18]: 0.409 | phage ELISA read-out [19]: 0.229 | phage ELISA read-out [20]: 0.084
